# Reference: article PMC10512346, “Cleavage of α-1,4-glycosidic linkages by the glycosylphosphatidylinositol-anchored α-amylase AgtA decreases the molecular weight of cell wall α-1,3-glucan in Aspergillus oryzae” (Frontiers in Fungal Biology, 2023)
# B1: rAoAgtA (Aspergillus oryzae RIB40) (protein)
# chain: ATTAEWKSRSVYQTMTDRFARTDGSTTAPCNTTQGLYCGGTWRGTIDKLDYIQGMGFDAVMISPIVENIEGRVSYGEAYHGYWPLDLYSLNSHFGTHQDLLDLSEALHSRGMYLMMDTVINNMAYMTNGKDPAKNIDYSVFTPFNDSSYFHPYCKITDWNNYTNAQLCQTGDDKVALPDLFTEHEDVQQILEKWAKEIISTYSIDGLRIDAAKHVNPGFLKNFGDAIGAFMTGEVLQQEVDTICKYQNNYIGSVPNYPIYYSVLKAFTLGNTTDLANQVEIMKNSCDDVTALASFSENHDVARFASMTDDMALAKNVLTFTILYDGVPMIYQGQEQHLDGPGTPDNREAIWLTKYNTDAELYKLIAKLNTIRKHAYKLDPNYVSLQTYPIFRGGSELGFRKGVEGRQVVMLLSTQGSNSSAYNLTLPVSFNGGVQVMDVLNCVNYTVNPQSELIVPMDKGEPRVFFPTSLMPGSGLCGYTTANVSFVELKTKGAA
# notes: residues 24-518 of 549 (signal peptide 1-23 and C-terminal GPI-anchor region removed), C-terminal PGGGS linker and His6 tag; secreted from Pichia pastoris SMD1168H with alpha-factor signal
# Legend:
# Experiment in all cases: purified protein
# Format in all cases: biochemical, Aspergillus oryzae
# purified protein [1] = substrate: O=[N+]([O-])c1ccc(O[C@H]2O[C@H](CO)[C@@H](O[C@H]3O[C@H](CO)[C@@H](O[C@H]4O[C@H](CO)[C@@H](O[C@H]5O[C@H](CO)[C@@H](O[C@H]6O[C@H](CO)[C@@H](O)[C@H](O)[C@H]6O)[C@H](O)[C@H]5O)[C@H](O)[C@H]4O)[C@H](O)[C@H]3O)[C@H](O)[C@H]2O)cc1; settings: 50 mM sodium acetate pH 5.5, 40°C, apparent value, hydrolysis plus transglycosylation, 1.6–100 mM substrate
# purified protein [2] = substrate: O=[N+]([O-])c1ccc(O[C@H]2O[C@H](CO)[C@@H](O[C@H]3O[C@H](CO)[C@@H](O[C@H]4O[C@H](CO)[C@@H](O[C@H]5O[C@H](CO)[C@@H](O[C@H]6O[C@H](CO)[C@@H](O[C@H]7O[C@H](CO)[C@@H](O[C@H]8O[C@H](CO)[C@@H](O)[C@H](O)[C@H]8O)[C@H](O)[C@H]7O)[C@H](O)[C@H]6O)[C@H](O)[C@H]5O)[C@H](O)[C@H]4O)[C@H](O)[C@H]3O)[C@H](O)[C@H]2O)cc1; settings: 50 mM sodium acetate pH 5.5, 40°C, apparent value, hydrolysis plus transglycosylation, 1.6–50 mM substrate
# purified protein [3] = substrate: O=[N+]([O-])c1ccc(O[C@H]2O[C@H](CO)[C@@H](O[C@H]3O[C@H](CO)[C@@H](O[C@H]4O[C@H](CO)[C@@H](O[C@H]5O[C@H](CO)[C@@H](O[C@H]6O[C@H](CO)[C@@H](O[C@H]7O[C@H](CO)[C@@H](O[C@H]8O[C@H](CO)[C@@H](O[C@H]9O[C@H](CO)[C@@H](O)[C@H](O)[C@H]9O)[C@H](O)[C@H]8O)[C@H](O)[C@H]7O)[C@H](O)[C@H]6O)[C@H](O)[C@H]5O)[C@H](O)[C@H]4O)[C@H](O)[C@H]3O)[C@H](O)[C@H]2O)cc1; settings: 50 mM sodium acetate pH 5.5, 40°C, apparent value, hydrolysis plus transglycosylation, 1.6–25 mM substrate
# purified protein [4] = substrate: O=[N+]([O-])c1ccc(O[C@H]2O[C@H](CO)[C@@H](O[C@H]3O[C@H](CO)[C@@H](O[C@H]4O[C@H](CO)[C@@H](O[C@H]5O[C@H](CO)[C@@H](O[C@H]6O[C@H](CO)[C@@H](O[C@H]7O[C@H](CO)[C@@H](O)[C@H](O)[C@H]7O)[C@H](O)[C@H]6O)[C@H](O)[C@H]5O)[C@H](O)[C@H]4O)[C@H](O)[C@H]3O)[C@H](O)[C@H]2O)cc1; settings: 50 mM sodium acetate pH 5.5, 40°C, apparent value, hydrolysis plus transglycosylation, 1.6–50 mM substrate
protein,measurement,setting,value
B1,Km,purified protein [1],61.8 mM
same,Vmax,purified protein [1],659 µM/min
same,kcat,purified protein [1],60 s⁻¹
same,kcat/Km,purified protein [1],970 M⁻¹ s⁻¹
same,Km,purified protein [2],28.9 mM
same,Vmax,purified protein [2],402 µM/min
same,kcat,purified protein [2],36.7 s⁻¹
same,kcat/Km,purified protein [2],1270 M⁻¹ s⁻¹
same,Km,purified protein [3],25.1 mM
same,Vmax,purified protein [3],344 µM/min
same,kcat,purified protein [3],31.3 s⁻¹
same,kcat/Km,purified protein [3],1250 M⁻¹ s⁻¹
same,Km,purified protein [4],45.6 mM
same,Vmax,purified protein [4],710 µM/min
same,kcat,purified protein [4],64.6 s⁻¹
same,kcat/Km,purified protein [4],1420 M⁻¹ s⁻¹
